PMC13541614 (2026)

B1: 13D4 (broadly neutralizing antibody targeting the head region of HA), IgG (antibody, V domains shown)
VH: QVQLQQSGAELMKPGASVKISCKATGYTFSGHWIEWVKQRPGHGLEWIGEILPGSGNIHYNEKFKGKATFAADTSSNTAYMQLSSLTSEDSAVYYCARLGTTAVERDWYFDVWGAGTTVTVSL
VL: DIVMTQSQKFMSASVGDRVSVTCKASQNVGTHLAWYQQKPGQSPKALIYSASYRYSGVPDRFTGSGSGTDFTLTISNVQSGDLADYFCQQYNNFPLTFGAGTKLEIK
B2: CR6261 (broadly neutralizing antibody targeting the stem region of HA), IgG (antibody, V domains shown)
VH: EVQLVESGAEVKKPGSSVKVSCKASGGPFRSYAISWVRQAPGQGPEWMGGIIPIFGTTKYAPKFQGRVTITADDFAGTVYMELSSLRSEDTAMYYCAKHMGYQVRETMDVWGKGTTVTVSS
VL: QSVLTQPPSVSAAPGQKVTISCSGSSSNIGNDYVSWYQQLPGTAPKLLIYDNNKRPSGIPDRFSGSKSGTSATLGITGLQTGDEANYYCATWDRRPTAYVVFGGGTKLTVL

Biological target: H5N1 influenza hemagglutinin (HA) of A/Vietnam/1203/2004, native (wild type) (Influenza A virus A/Vietnam/1203/2004 …, biotin on the AviTag (expressed in the presence of BirA))
Test: BLI

| Binder | Kd [nM] |
| --- | --- |
| B1 | 0.64 |
| B2 | 0.46 |
